Molecular target: 5-FAM-labelled VISTA WT peptide (fluorescence polarization probe) (human)
Experiment: fluorescence polarisation

Chain of 5-FAM-labelled VISTA WT peptide (fluorescence polarization probe) (human) (Q9H7M9 232-258): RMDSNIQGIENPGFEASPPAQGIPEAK

For “recombinant NUMB PTB domain (domain or fragment)”, the Kd was 5.5 µM.
